The values that follow come from patent publication US7939292B2, “Modified heparinase III and methods of sequencing therewith” (Massachusetts Institute of Technology, priority 2000, dated 2011).

Assay [1] relates to B16BL6 melanoma. Nature of the assay: Primary tumor growth of B16BL6 melanoma in mice treated with heparinases. Format: in vivo. The text has this: Heparinases I and III, which have very distinct substrate specificities for cleaving HLGAGs, were employed as tools to investigate the role of HLGAGs in tumor growth and metastasis. While heparinase I cleaves at the highly sulfated regions of HLGAGs, heparinase III only cleaves at the under-sulfated regions of the polysaccharide chain, thereby rendering these enzymes powerful tools to investigate in vivo and in vitro roles of HLGAGs, in development, morphogenesis, angiogenesis etc. To examine the roles of HLGAGs in tumor growth and metastasis, we used B16BL6 melanoma as a model system and treated tumor-bearing mice with either heparinases I or III to investigate both primary tumor growth as well as tumor metastasis. Consistent with the current paradigm, heparinase I accelerated tumor growth (FIG. 8). At a dosage of 0.5 mg/kg/day of heparinase I, tumor growth was increased by about 39%. […] Inhibition of primary tumor growth by heparinase III was first observed at 2 mg/kg per day. Tumor growth was inhibited by 73% at 12 mg/kg per day, the maximum dosage tested in the study (FIG. 8).
Mice, 15 days after tumor implantation with B16BL6 melanoma, were examined. 4×10^5 log growth phase B16BL6 melanoma cells in 0.1 ml PBS were injected to the flank of C57BL/6 mice on day 1. Daily injection of 0.1 ml of PBS, heat inactivated hep III or active heparinase III (2 mg/ml, recombinantly expressed, purified, buffer exchanged with PBS, and concentrated) started at the day 4 and continued throughout the experiment. At day 7, osmotic pumps (100 μl capacity delivering at 0.5 μl per hour) containing PBS or 3 mg/ml hep III were implanted subcutaneously at a place remote from the tumor site. Mice were sacrificed at day 15.
FIG. 8 depicts the tumor volume of the tumors isolated from the mice described above. Tumor volume was measured daily after day 7 with a caliper and calculated with the formula [volume=0.52×(width)^2×(length)].

The test system of assay [2] is LLC cells. Nature of the assay: Lung metastasis of LLC cells injected through tail vein. Particulars: cells incubated with enzyme before tail vein injection. Format: in vivo, mice. The protocol:
To ensure that these observations were not limited to the tumor model chosen, hep III was used to treat mice bearing Lewis lung carcinoma (LLC) tumors. Growth curves of primary tumor growth for LLC tumor in C57BL/6 mice treated with either PBS or heparinase III were plotted. 4×10^5 log phase LLC cells were injected subcutaneously to the flank of mice on day 1. Daily injection of 0.1 ml of either PBS or 2 mg/ml recombinantly expressed heparinase III started at the day 4 and continued throughout the experiment. At day 8, osmotic pumps (100 μl capacity delivering at 0.5 μl per hour) containing PBS or 3 mg/ml hep III were implanted subcutaneously at a place remote from the tumor site. Mice were sacrificed at day 20. Lung metastasis of LLC cells injected through tail vein were quantitated as number of lung nodules. Log growth LLC cells were trypsinized for 30 seconds and resuspended in PBS to a final concentration of 1×10^6 per ml. For experimental group, cells were incubated with […] hep III for 30 minutes at 37° C. before injecting 0.2 ml of cell suspension via tail vein. Mice were euthanized 12 days after tail vein injections, lungs were harvested, rinsed in tap water and fixed overnight in Bouin's solution. The number of nodules on lung surface was counted with the aid of a dissection microscope.

Assay [3] concerns FAK. Nature of the assay: Activation of FAK in B16BL6 tumor. Also noted: species or system mice. Particulars: mouse, in vivo. The text has this:
d. Effect of heparinase treatment on activation of FAK in B16BL6 tumor. The FAK protein was immunoprecipitated with mouse anti-FAK monoclonal antibody (Transduction Laboratories, Lexington, Ky.) according to the procedures described above. The phosphorylated FAK was detected using phosphotyrosine specific antibody RC20.

Assay [4] concerns B16BL6 melanoma cells. Nature of the assay: Lung metastasis of heparinase treated B16BL6 cells after tail vein injection. Type of assay: in vivo, mice. The settings on record: cells treated 30 min at 37° C. before tail vein injection; 13 days. How it is done: We next investigated the ability of heparinase treated B16BL6 melanoma cells to metastasize to the lungs. B16BL6 cells in log growth phase were briefly trypsinized and resuspended in PBS to a final concentration of 1×10^6 per ml. Prior to injection, cells were treated with either PBS, hep I […] or hep III […] for 30 min. at 37° C. 0.2 ml cell suspensions (2×10^5 cells) were injected slowly via tail vein. Mice were sacrificed 13 days later and lungs were harvested, rinsed with tap water. The number of nodules on lung surface were counted with the assistance of a dissection microscope. * indicates p<0.05 (Mann-Whitney test).

In assay [5] the test system is Erk-1, 2. Nature of the assay: Total and phosphorylated Erk-1, 2 in heparinase-treated B16BL6 tumor. Also on record: species or system mice. The settings on record: mouse, in vivo. How it is done: e. Level of total and phosphorylated Erk-1, 2 in heparinase-treated B16BL6 tumor. Tumor homogenates were prepared and processed as described in c. The supernatant was used for total protein concentration assay and immunoblotting. The immunoblot was detected as described in a.

The subject of assay [6] is Akt. Nature of the assay: Akt activation in B16BL6 tumor. Also on record: species or system mice. Particulars: mouse, in vivo. The protocol:
f. Effect of heparinase treatment on Akt activation. The primary tumor was treated and processed as described above. Akt antibody and phospho-Akt antibody from New England Biolabs were used to probe the immunoblot.

B1: heparinase III: HLGAG degrading enzyme from Flavobacterium heparinum (EC 4.2.2.8), SEQ ID NO:2; cleaves heparan sulfate (protein, listed as Pedobacter heparinus)
chain: MTTKIFKRIIVFAVIALSSGNILAQSSSITRKDFDHINLEYSGLEKVNKAVAAGNYDDAAKALLAYYREKSKAREPDFSNAEKPADIRQPIDKVTREMADKALVHQFQPHKGYGYFDYGKDINWQMWPVKDNEVRWQLHRVKWWQAMALVYHATGDEKYAREWVYQYSDWARKNPLGLSQDNDKFVWRPLEVSDRVQSLPPTFSLFVNSPAFTPAFLMEFLNSYHQQADYLSTHYAEQGNHRLFEAQRNLFAGVSFPEFKDSPRWRQTGISVLNTEIKKQVYADGMQFELSPIYHVAAIDIFLKAYGSAKRVNLEKEFPQSYVQTVENMIMALISISLPDYNTPMFGDSWITDKNFRMAQFASWARVFPANQAIKYFATDGKQGKAPNFLSKALSNAGFYTFRSGWDKNATVMVLKASPPGEFHAQPDNGTFELFIKGRNFTPDAGVFVYSGDEAIMKLRNWYRQTRIHSTLTLDNQNMVITKARQNKWETGNNLDVLTYTNPSYPNLDHQRSVLFINKKYFLVIDRAIGEATGNLGVHWQLKEDSNPVFDKTKNRVYTTYRDGNNLMIQSLNADRTSLNEEEGKVSYVYNKELKRPAFVFEKPKKNAGTQNFVSIVYPYDGQKAPEISIRENKGNDFEKGKLNLTLTINGKQQLVLVP
In the case of B1, the “inhibition of tumor growth” value in assay [1] (12 mg/kg per day, maximum dosage tested) is reported as 73%. Moreover, the “dosage at which inhibition of primary tumor growth was first observed” value in assay [1] (mouse, in vivo) is reported as 2 mg/kg per day. For the same molecule, in assay [1] (nude mice and C57BL/6 mice, subcutaneous injections), the primary tumor growth result is listed as “significant inhibition in primary tumor growth”. Besides, the “colonization of lungs by LLC cells” value in assay [2] is recorded as “inhibited the LLC cells to colonize in the lungs”. Besides, the “FAK activation in tumor” value in assay [3] is recorded as “inhibited FAK activation”. In addition, the “ability of treated B16BL6 cells to metastasize to the lungs compared to PBS treated cells” value in assay [4] is listed as “significantly less able to metastasize to the lungs”. Moreover, in assay [5], the “level of activated Erk-1, 2 in primary tumor” value is recorded as “lower level of activated Erk-1, 2”. In assay [6], the “activation of Akt in tumor” value was “no change in activation of Akt”.
